The values below come from the Human Domainome abundance scans (Beltran et al. 2025).

± gives the uncertainty stated by the source.

The series in a line: abundance fitness (aPCA) (normalised: wild type 0, dead -1); higher = more abundant; growth selection in yeast, the domain comes from the species named. Conditions: Homo sapiens.
Turning to “Scaffold attachment factor B1 L34W, Q15424”, the abundance fitness was -0.375 ± 0.075.
With “Scaffold attachment factor B1 L34Y, Q15424” the figure was -0.316 ± 0.056; with “Scaffold attachment factor B1 L39A, Q15424”, -0.556 ± 0.062.
In the case of “Scaffold attachment factor B1 L39C, Q15424” it was -0.745 ± 0.074; in that of “Scaffold attachment factor B1 L39D, Q15424”, -1.12 ± 0.13.
In the case of “Scaffold attachment factor B1 L39E, Q15424”, the abundance fitness is -0.753 ± 0.06.
Substance “Scaffold attachment factor B1 L39F, Q15424” came in with an abundance fitness of -0.665 ± 0.089.
With “Scaffold attachment factor B1 L39G, Q15424” the figure was -0.814 ± 0.052; with “Scaffold attachment factor B1 L39H, Q15424”, -0.766 ± 0.12; with “Scaffold attachment factor B1 L39I, Q15424”, -0.264 ± 0.1.
The substance “Scaffold attachment factor B1 L39K, Q15424” gave an abundance fitness of -0.996 ± 0.072.
With “Scaffold attachment factor B1 L39M, Q15424” the figure was -0.304 ± 0.076; with “Scaffold attachment factor B1 L39N, Q15424”, -0.87 ± 0.066; with “Scaffold attachment factor B1 L39P, Q15424”, -0.77 ± 0.1.
In the case of “Scaffold attachment factor B1 L39Q, Q15424” it was -0.764 ± 0.072; in that of “Scaffold attachment factor B1 L39R, Q15424”, -0.894 ± 0.05; in that of “Scaffold attachment factor B1 L39S, Q15424”, -0.877 ± 0.056.
With “Scaffold attachment factor B1 L39T, Q15424” the figure was -0.983 ± 0.091; with “Scaffold attachment factor B1 L39Y, Q15424”, -0.824 ± 0.093; with “Scaffold attachment factor B1 L43A, Q15424”, -0.225 ± 0.066.
In turn, “Scaffold attachment factor B1 L43C, Q15424” showed an abundance fitness of -0.123 ± 0.068.
In the case of “Scaffold attachment factor B1 L43D, Q15424” it was -0.858 ± 0.1.
For “Scaffold attachment factor B1 L43E, Q15424”, the abundance fitness was -0.761 ± 0.08.
In the case of “Scaffold attachment factor B1 L43F, Q15424” it was -1.21 ± 0.073; in that of “Scaffold attachment factor B1 L43G, Q15424”, -0.752 ± 0.05; in that of “Scaffold attachment factor B1 L43I, Q15424”, -1.02 ± 0.091.
The substance “Scaffold attachment factor B1 L43K, Q15424” came in with an abundance fitness of -0.9 ± 0.095.
With “Scaffold attachment factor B1 L43M, Q15424” the figure was -0.402 ± 0.075.
With “Scaffold attachment factor B1 L43N, Q15424” the figure was -0.936 ± 0.13; with “Scaffold attachment factor B1 L43P, Q15424”, -1.1 ± 0.11; with “Scaffold attachment factor B1 L43Q, Q15424”, -0.911 ± 0.063.
With “Scaffold attachment factor B1 L43S, Q15424” the figure was -0.653 ± 0.059; with “Scaffold attachment factor B1 L43V, Q15424”, -0.714 ± 0.06.
Take “Scaffold attachment factor B1 L43W, Q15424”: the abundance fitness is -1.09 ± 0.083.
In the case of “Scaffold attachment factor B1 L43Y, Q15424” it was -1.22 ± 0.07.
In the case of “Scaffold attachment factor B1 L57A, Q15424” it was -0.462 ± 0.062; in that of “Scaffold attachment factor B1 L57D, Q15424”, -0.202 ± 0.061.
In the case of “Scaffold attachment factor B1 L57F, Q15424” it was -1.21 ± 0.1; in that of “Scaffold attachment factor B1 L57G, Q15424”, -0.759 ± 0.069; in that of “Scaffold attachment factor B1 L57H, Q15424”, -0.842 ± 0.1.
Turning to “Scaffold attachment factor B1 L57I, Q15424”, the abundance fitness was -0.32 ± 0.077.
The substance “Scaffold attachment factor B1 L57K, Q15424” showed an abundance fitness of -0.598 ± 0.088.
With “Scaffold attachment factor B1 L57M, Q15424” the figure was -0.272 ± 0.074.
In the case of “Scaffold attachment factor B1 L57N, Q15424” it was -0.521 ± 0.067; in that of “Scaffold attachment factor B1 L57P, Q15424”, -0.62 ± 0.074; in that of “Scaffold attachment factor B1 L57Q, Q15424”, -0.527 ± 0.074.
Turning to “Scaffold attachment factor B1 L57R, Q15424”, the abundance fitness was -0.754 ± 0.054.
In the case of “Scaffold attachment factor B1 L57S, Q15424” it was -0.584 ± 0.052; in that of “Scaffold attachment factor B1 L57V, Q15424”, -0.417 ± 0.065.
In the case of “Scaffold attachment factor B1 L57W, Q15424” it was -1.37 ± 0.1; in that of “Scaffold attachment factor B1 L57Y, Q15424”, -1.23 ± 0.095.
“Scaffold attachment factor B1 L61C, Q15424” came in with an abundance fitness of -0.41 ± 0.055.
With “Scaffold attachment factor B1 L61D, Q15424” the figure was -0.615 ± 0.086; with “Scaffold attachment factor B1 L61E, Q15424”, -0.484 ± 0.06; with “Scaffold attachment factor B1 L61F, Q15424”, -0.299 ± 0.067.
With “Scaffold attachment factor B1 L61G, Q15424” the figure was -0.511 ± 0.051; with “Scaffold attachment factor B1 L61H, Q15424”, -0.611 ± 0.085; with “Scaffold attachment factor B1 L61I, Q15424”, -0.614 ± 0.12.
With “Scaffold attachment factor B1 L61K, Q15424” the figure was -0.788 ± 0.12.
For the substance “Scaffold attachment factor B1 L61M, Q15424”, the abundance fitness was -0.336 ± 0.083.
In the case of “Scaffold attachment factor B1 L61N, Q15424”, the abundance fitness is -0.716 ± 0.13.
With “Scaffold attachment factor B1 L61P, Q15424” the figure was -0.583 ± 0.09.
With “Scaffold attachment factor B1 L61R, Q15424” the figure was -0.644 ± 0.057; with “Scaffold attachment factor B1 L61S, Q15424”, -0.508 ± 0.062.
In the case of “Scaffold attachment factor B1 L61T, Q15424” it was -0.393 ± 0.078; in that of “Scaffold attachment factor B1 L61V, Q15424”, -0.311 ± 0.065; in that of “Scaffold attachment factor B1 L61W, Q15424”, -0.649 ± 0.052.
“Scaffold attachment factor B1 L61Y, Q15424”: the abundance fitness is -0.351 ± 0.072.
In the case of “Scaffold attachment factor B1 M58A, Q15424”, the abundance fitness was -0.224 ± 0.063.
